Assay [1] deals with T1, rhNR10 (recombinant human NR10) (human, UniProt Q8NI17 20-519, limits assumed).
T1 construct: also called IL-31 receptor; IL31RA
T1 sequence: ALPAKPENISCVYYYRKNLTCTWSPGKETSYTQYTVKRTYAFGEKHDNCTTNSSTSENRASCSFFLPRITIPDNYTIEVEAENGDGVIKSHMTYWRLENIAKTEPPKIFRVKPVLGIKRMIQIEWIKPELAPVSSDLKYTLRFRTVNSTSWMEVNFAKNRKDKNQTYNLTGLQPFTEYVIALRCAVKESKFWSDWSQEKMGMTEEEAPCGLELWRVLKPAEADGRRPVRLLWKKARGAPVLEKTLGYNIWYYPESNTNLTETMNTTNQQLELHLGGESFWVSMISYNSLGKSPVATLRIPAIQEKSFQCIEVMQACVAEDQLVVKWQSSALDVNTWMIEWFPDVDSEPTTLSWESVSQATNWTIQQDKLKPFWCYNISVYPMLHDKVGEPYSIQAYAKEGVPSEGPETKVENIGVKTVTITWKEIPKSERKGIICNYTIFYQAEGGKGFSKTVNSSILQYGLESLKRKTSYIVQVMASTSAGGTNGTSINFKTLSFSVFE
The assay is described as follows: SPR, Biacore T100; antibody captured on Protein A, rhNR10 as analyte. The protocol: Kinetic analysis of the antigen-antibody reaction was carried out using Biacore T100 (GE Healthcare Biosciences). The antigen-antibody interaction was measured by immobilizing rec-Protein A (hereinafter Protein A) (ZYMED) onto a sensor chip, capturing an antibody on the immobilized Protein A, and then reacting the antigen as an analyte. Various concentrations of rhNR10 were used as the antigen. The kinetic parameters, association rate constant kₐ (1/Ms) and dissociation rate constant kd (1/s), were calculated from the sensorgrams obtained by the measurement. Then, KD (M) was determined based on the rate constants. Each parameter was determined using Biacore T100 Evaluation Software version 1.1 (GE Healthcare Biosciences).
The running buffer used was HBS-EP+. Each antibody was prepared at 0.25 μg/ml, or prepared so that about 100 RU would bind to Protein A. rhNR10 used as an analyte was prepared at 0, 38.5, 77.0, and 154 nM, or at 0, 19.25, and 77.01 nM using HBS-EP+. In the measurement, first, the antibody solution was captured on Protein A, and an analyte solution was reacted at a flow rate of 20 μL/min for three minutes. Then, the solution was switched to HBS-EP+, and the dissociation phase was measured for five minutes. After measurement of the dissociation phase, the sensor chip was regenerated by washing with 10 mM glycine-HCl (pH 1.5). The obtained sensorgrams were kinetically analyzed using the Biacore-specific data analysis software, Biacore T100 Evaluation Software Version 1.1.
(Surface plasmon resonance follows binding to a sensor surface in real time, without labels.)

Assay [2] addresses T2, mhh (human/mouse chimeric NR10 extracellular domain, His/Myc tagged) (human/mouse chimera).
T2 construct: C-terminal His-Myc tag
T2 chain: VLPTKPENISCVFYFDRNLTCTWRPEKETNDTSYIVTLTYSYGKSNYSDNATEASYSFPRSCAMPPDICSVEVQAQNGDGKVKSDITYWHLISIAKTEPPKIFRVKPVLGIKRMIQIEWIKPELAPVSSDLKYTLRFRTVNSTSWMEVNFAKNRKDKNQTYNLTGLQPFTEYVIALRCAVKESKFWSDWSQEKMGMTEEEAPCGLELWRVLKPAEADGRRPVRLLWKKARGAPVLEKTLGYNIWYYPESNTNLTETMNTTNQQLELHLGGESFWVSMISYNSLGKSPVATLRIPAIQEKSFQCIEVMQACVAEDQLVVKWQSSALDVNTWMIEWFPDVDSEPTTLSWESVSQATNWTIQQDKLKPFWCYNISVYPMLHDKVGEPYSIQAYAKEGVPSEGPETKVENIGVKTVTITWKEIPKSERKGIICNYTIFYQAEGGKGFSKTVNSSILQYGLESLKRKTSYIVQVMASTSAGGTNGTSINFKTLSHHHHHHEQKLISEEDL
In words: Western blot of purified His/Myc-tagged NR10-ECD probed with H44M58L17, detected with AP-labeled goat anti-human IgG. How it is done:
(§1) Each of the prepared human/mouse wild-type and chimeric antigens was electrophoresed at 0.5 μg/lane on three 4-20% polyacrylamide gels (Daiichi Pure Chemicals Co.). The proteins were electro-transferred onto PVDF membranes (Millipore) in a semi-dry blotting apparatus, and the membranes were blocked with TBS containing 5% skim milk. One membrane was incubated with 5 μg/ml of H44M58L17 (detection system for humanized anti-human NR10 antibody); another with 5 μg/ml of ND41 (detection system for mouse anti-human NR10 antibody); and the other one with anti-Myc antibody (SantaCruz, Cat.#sc-789) 500-times diluted with TBS containing 5% skim milk (detection system for Myc tag) at room temperature for one hour.
(§2) After washing three times with TBS containing 0.05% Tween™ 20, the secondary antibodies were incubated with the membranes. Alkaline phosphatase-labeled goat anti-human IgGγ (BIOSOURCE, Cat. #AHI0305) was used to detect humanized anti-human NR10 antibody; alkaline phosphatase-labeled goat anti-mouse IgG (SantaCruz, Cat. #sc-2008) was used to detect mouse anti-human NR10 antibody; and alkaline phosphatase-labeled goat anti-rabbit IgG (SantaCruz, Cat. #sc-2057) was used to detect Myc tag. The reaction was carried out at room temperature for one hour. […]
In general terms: Immunoblotting shows a protein as a band on a membrane.

Assay [3] deals with T3, mmh (human/mouse chimeric NR10 extracellular domain, His/Myc tagged) (human/mouse chimera).
T3 construct: C-terminal His-Myc tag
T3 chain: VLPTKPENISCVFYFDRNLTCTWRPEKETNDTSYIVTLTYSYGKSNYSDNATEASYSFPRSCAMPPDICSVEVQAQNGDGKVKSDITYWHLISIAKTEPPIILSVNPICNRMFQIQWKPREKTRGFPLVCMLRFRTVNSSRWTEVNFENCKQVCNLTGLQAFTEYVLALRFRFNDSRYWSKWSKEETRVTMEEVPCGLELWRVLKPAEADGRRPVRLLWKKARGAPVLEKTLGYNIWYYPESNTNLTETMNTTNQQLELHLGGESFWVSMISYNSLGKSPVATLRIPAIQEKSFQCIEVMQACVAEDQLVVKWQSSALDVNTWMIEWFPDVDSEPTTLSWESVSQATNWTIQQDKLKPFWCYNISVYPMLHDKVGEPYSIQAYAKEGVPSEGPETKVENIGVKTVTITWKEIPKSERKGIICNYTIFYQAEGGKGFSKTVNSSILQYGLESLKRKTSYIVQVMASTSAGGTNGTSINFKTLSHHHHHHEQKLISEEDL
In words: Western blotting, 0.5 µg antigen per lane. The protocol: as §1, §2

Assay [4] has as its target T4, cytoplasmic domain-lacking human NR10 on CHO cells (hNR10-expressing CHO cells) (human, UniProt Q8NI17 20-553).
T4 construct: also called NR10-expressing cells
T4 sequence: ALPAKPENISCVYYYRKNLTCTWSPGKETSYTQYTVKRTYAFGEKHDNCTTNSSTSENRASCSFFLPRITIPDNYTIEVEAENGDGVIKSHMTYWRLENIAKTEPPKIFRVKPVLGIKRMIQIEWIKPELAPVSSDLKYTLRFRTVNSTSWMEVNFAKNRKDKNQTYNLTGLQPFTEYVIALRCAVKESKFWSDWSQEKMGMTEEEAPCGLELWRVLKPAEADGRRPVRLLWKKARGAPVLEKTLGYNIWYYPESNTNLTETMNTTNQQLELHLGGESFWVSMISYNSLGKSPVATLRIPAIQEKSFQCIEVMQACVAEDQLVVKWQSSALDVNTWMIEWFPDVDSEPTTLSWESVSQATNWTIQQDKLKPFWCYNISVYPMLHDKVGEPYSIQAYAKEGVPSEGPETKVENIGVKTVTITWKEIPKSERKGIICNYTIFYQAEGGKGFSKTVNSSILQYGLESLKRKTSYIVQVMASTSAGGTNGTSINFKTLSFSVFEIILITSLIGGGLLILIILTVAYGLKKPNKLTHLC
The assay is described as follows: FMAT competition on hNR10-expressing CHO cells: antibody titrated against FMAT Blue-labeled hIL-31; FL1 = cell-bound labeled hIL-31. The protocol: Human IL-31 (R&D Systems) was labeled with FMAT Blue Monofunctional Reactive Dye (Applied Biosystems). 100 μl of hIL-31 prepared at 0.5 mg/ml using 50 mM sodium phosphate buffer (pH 8.0) was mixed with 5.25 μl of 25 nmoles FMAT Blue dissolved in DMSO (Junsei). After vortexing, the mixture was allowed to stand at room temperature for 15 minutes. The FMAT Blue-conjugating reaction with hIL-31 was terminated by adding 5 μl of 1 M Tris-HCl (pH 7.4) and 1.1 μl of 10% Tween20, and then FMAT Blue-labeled hIL-31 and unreacted FMAT Blue were separated by gel filtration using Superdex 75 (GE Healthcare, 17-0771-01) column with 0.1% Tween20/PBS developing solution.
NS22 and NA633 (the constant region of each is γ1, κ) were diluted at an appropriate concentration using Assay buffer (10 mM HEPES, 140 mM NaCl, 2.5 mM CaCl₂, 3 mM MgCl₂, 2% FBS, 0.01% NaN₃), and then seven serial dilutions were prepared at a common dilution ratio of 2. The dilutions were added at 40 μl/well to plates (96-Well FMAT Plates; Applied Biosystems). Then, FMAT Blue-labeled hIL-31 was diluted 400 times with Assay buffer and added at 20 μl/well. Finally, cell suspensions adjusted to 2.5×10⁵ cells/ml using Assay buffer were added at 40 μl/well (final 1×10⁴ cells/well). Two hours after addition of cells, the fluorescence (FL1) was determined using the 8200 Cellular Detection System (Applied Biosystems).

Results on 2 molecules are retold here after US20110129459A1 (Chugai, published 2011).

B1: H44L17 (H44-M58 / L17) (antibody, V domains shown)
VH: QVQLVQSGAEVKKPGASVKVSCKASGYTFTGYIMNWVRQAPGQGLEWMGLINPYNGGTDYNPQFQDRVTITADKSTSTAYMELSSLRSEDTAVYYCARDGYDDGPYTLETWGQGTLVTVSS
VL: DIQMTQSPSSLSASVGDRVTITCQASEDIYSFVAWYQQKPGKAPKLLIYNAQTEAQGVPSRFSGSGSGTDFTLTISSLQPEDFATYYCQHHYDSPLTFGGGTKVEIKR
notes: also called humanized anti-human NR10 antibody
Regarding B1, in assay [1], the Kd came out at 1.2 nM, the koff was 0.00072 s⁻¹ and the kon came to 610000 M⁻¹ s⁻¹. Besides, in assay [2], the binding result was “no binding”. Also, in assay [3], the binding result is “no binding (tested: 5 µg/ml)”.

B2: chimeric NA633 (human gamma1, kappa) (antibody, V domains shown)
VH: DVQLRESGPGLVKPSQSLSLTCTVTGYSITSDYAWNWIRQFPGNKLEWMGYISYSGSTSYNPSLKSRVSITRDTSKNQFFLQLNSVTTEDTATYYCAPMITTDWFFDVWGAGTTVTVSS
VL: DIVMTQSPATLSVTPGDRVSLSCRASHDISDFLHWYQQKSHESPRLLIKYASQSISGIPSRFSGSGSGSDFTLSINSVEPEDVGVYYCQNGHSFPWTFGGGTKLEIK
notes: Mouse variable regions with human constant regions (H chain gamma1)
For the molecule B2, the binding result in assay [4] is recorded as “binds”.

For orientation: Kd means the equilibrium constant for the complex coming apart. By koff is commonly meant a measure of how fast the partners let go of each other. In general, kon refers to the second-order rate constant of association.
